Data taken from patent publication US20240376151A1, “STAPLED PEPTIDES AND METHODS THEREOF” (FOG PHARMACEUTICALS, INC., priority 2022, published 2024).
Numbered stars: 1 amine (or outer) side, 2 acyl side, 3 side chain; on linkers, the order of the positions; unused ones are H or OH. Bridge positions count the residues as written; N and C are the ends. Ends that are not written are not given here. Phenylene(1,4-NHCOCH2)2 = O=C(C[*:1])Nc1ccc(NC(=O)C[*:2])cc1

Columns and labels:
CDK2 = CDK2 (Homo sapiens, UniProt P24941); assay: Phage Library Screening with NGS, CDK2; type: binding; design: Full length CDK2 (residues 1-298) with an N-terminal GST-3C-6×his-TEV tag; GST-3C-6×his-TEV (N, cleaved yes); made in house; host or cells: Sf9 (Bac-to-Bac baculovirus); details: for phage screen counts, Target Concentration 10: CDK2, target concentration 10; for phage screen counts, Target Concentration 30: CDK2, target concentration 30; for phage screen counts, Target Concentration 100: CDK2, target concentration 100; for phage screen counts, Target Concentration 300: CDK2, target concentration 300
PPIA = target: T1, PPIA (Homo sapiens, UniProt P62937); assay: Phage Library Screening with NGS, PPIA; type: binding
T1 construct: Full length PPIA (residues 1-165) with an N-terminal 6×his-yBBR-TEV tag; 6×his-yBBR-TEV (N); made in house; host or cells: E. coli BL21 (DE3) CodonPlus RIPL

[1] = CDK2, target concentration 1000, first column
[2] = CDK2, target concentration 1000, second column
[3] = target concentration 1000, first column
[4] = target concentration 1000, second column

T1 sequence (P62937 whole entry, the tested form may be a part): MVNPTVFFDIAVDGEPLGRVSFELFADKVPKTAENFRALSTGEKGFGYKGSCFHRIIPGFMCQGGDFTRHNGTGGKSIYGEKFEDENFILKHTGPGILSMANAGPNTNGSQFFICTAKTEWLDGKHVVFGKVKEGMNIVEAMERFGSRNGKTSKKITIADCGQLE

| Sequence | phage screen counts, Target Concentration 10 (CDK2) | phage screen counts, Target Concentration 30 (CDK2) | phage screen counts, Target Concentration 100 (CDK2) | phage screen counts, Target Concentration 300 (CDK2) | phage screen counts, Target Concentration 1000 (CDK2; [1]) | phage screen counts, Target Concentration 1000 (CDK2; [2]) | phage screen counts, Target Concentration 10 (PPIA) | phage screen counts, Target Concentration 30 (PPIA) | phage screen counts, Target Concentration 100 (PPIA) | phage screen counts, Target Concentration 300 (PPIA) | phage screen counts, Target Concentration 1000 (PPIA; [3]) | phage screen counts, Target Concentration 1000 (PPIA; [4]) |
| --- | --- | --- | --- | --- | --- | --- | --- | --- | --- | --- | --- | --- |
| CLDAFFACER (linker 1-8 via Phenylene(1,4-NHCOCH2)2 (inferred); not fully specified (C-terminus)) | 0 | 0 | 0 | 4 | 7 | 408 |  |  |  |  |  |  |
| CLSAFFMCSS (linker 1-8 via Phenylene(1,4-NHCOCH2)2 (inferred); not fully specified (C-terminus)) | 0 | 0 | 0 | 0 | 90 | 50 |  |  |  |  |  |  |
| CLSAFFSCTY (linker 1-8 via Phenylene(1,4-NHCOCH2)2 (inferred); not fully specified (C-terminus)) | 29 | 0 | 0 | 0 | 111 | 330 |  |  |  |  |  |  |
| DPAWWECIVAALECSDR (linker 7-14 via Phenylene(1,4-NHCOCH2)2 (inferred)) | 0 | 0 | 0 | 62 | 76 | 90 |  |  |  |  |  |  |
| DPAWWHCSIAALECHTT (linker 7-14 via Phenylene(1,4-NHCOCH2)2 (inferred)) | 0 | 18 | 25 | 216 | 195 | 358 |  |  |  |  |  |  |
| DPAWWHCVIAALDCETQ (linker 7-14 via Phenylene(1,4-NHCOCH2)2 (inferred)) | 0 | 15 | 5 | 93 | 119 | 141 |  |  |  |  |  |  |
| DPAWWMCTIAAIECETT (linker 7-14 via Phenylene(1,4-NHCOCH2)2 (inferred)) | 0 | 0 | 73 | 973 | 909 | 998 |  |  |  |  |  |  |
| DPAWWRCSIAAMECHHD (linker 7-14 via Phenylene(1,4-NHCOCH2)2 (inferred)) | 0 | 0 | 13 | 39 | 119 | 102 |  |  |  |  |  |  |
| DPAWWRCSIAAVDCEMQ (linker 7-14 via Phenylene(1,4-NHCOCH2)2 (inferred)) | 0 | 0 | 0 | 93 | 238 | 217 |  |  |  |  |  |  |
| DPAWWRCSVAAIDCHWN (linker 7-14 via Phenylene(1,4-NHCOCH2)2 (inferred)) | 0 | 10 | 3 | 93 | 65 | 230 |  |  |  |  |  |  |
| DPAWWRCVVAALDCVDY (linker 7-14 via Phenylene(1,4-NHCOCH2)2 (inferred)) | 0 | 12 | 8 | 262 | 162 | 409 |  |  |  |  |  |  |
| DPAWWSCVIAAMECQDI (linker 7-14 via Phenylene(1,4-NHCOCH2)2 (inferred)) | 0 | 0 | 0 | 39 | 87 | 90 |  |  |  |  |  |  |
| DPAWWTCIIAALECEEQ (linker 7-14 via Phenylene(1,4-NHCOCH2)2 (inferred)) | 0 | 0 | 51 | 193 | 195 | 102 |  |  |  |  |  |  |
| DPAWWTCSVAAIQCWDS (linker 7-14 via Phenylene(1,4-NHCOCH2)2 (inferred)) | 0 | 0 | 10 | 69 | 119 | 243 |  |  |  |  |  |  |
| DPAWWVCAIAAIECSDV (linker 7-14 via Phenylene(1,4-NHCOCH2)2 (inferred); not fully specified (N-terminus, C-terminus)) | 38 | 634 | 2330 | 12368 | 7673 | 8315 |  |  |  |  |  |  |
| DPAWWVCAIAAMDCHEQ (linker 7-14 via Phenylene(1,4-NHCOCH2)2 (inferred)) | 0 | 0 | 0 | 139 | 216 | 422 |  |  |  |  |  |  |
| PNCHVEAYFCM |  |  |  |  |  |  | 0 | 1 | 8 | 68 | 98 | 63 |
| PNCHVMAYWCW |  |  |  |  |  |  | 0 | 0 | 1 | 8 | 10 | 7 |
| PTCHIDAWVCY |  |  |  |  |  |  | 0 | 0 | 0 | 12 | 18 | 26 |
| PTCHIHAYHCY |  |  |  |  |  |  | 0 | 0 | 3 | 5 | 31 | 8 |
| PTCHVQAWYCW |  |  |  |  |  |  | 0 | 0 | 0 | 0 | 10 | 29 |
| PYDCHIAAWMC |  |  |  |  |  |  | 0 | 0 | 0 | 0 | 20 | 35 |
